The values that follow come from patent publication US20100104530A1 (published 2010).

As usually defined, the Kd is the equilibrium constant for the complex coming apart. Read a low Kd as higher affinity.

Assay [1] deals with T1, GST fusion of VPAC1 extracellular loop 3 (human).
T1 construct: also called isolated extracellular loop 3 of the VPAC1 receptor; not shown: glutathione-S-transferase (GST)
T1 chain: PDNFKPEVKMLFE
Kind of assay: western blot on GST fusion of extracellular loop 3.

For assay [2], the target named is T2, GST fusion of VPAC1 variant 4-2 (amino acids 231-457 of SEQ ID NO:15) (human, UniProt P32241 231-457).
T2 construct: not shown: GST carrier and the pGEX vector linker
T2 sequence: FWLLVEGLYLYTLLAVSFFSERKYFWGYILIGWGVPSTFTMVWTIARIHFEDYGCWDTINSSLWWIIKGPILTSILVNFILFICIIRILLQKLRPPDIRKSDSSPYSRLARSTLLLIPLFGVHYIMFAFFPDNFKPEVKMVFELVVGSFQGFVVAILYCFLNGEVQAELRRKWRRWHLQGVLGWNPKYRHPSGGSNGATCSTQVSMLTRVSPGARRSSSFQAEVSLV
Kind of assay: western blot on GST-fused VPAC1 deletion variants. The procedure:
(§1) For the epitope mapping of 23A11, several VPAC1 deletion variants were fused to GST and expressed. Binding of 23A11 to the VPAC1 deletion variants was tested by western blotting.
(§2) VPAC1 variant 4-2 (and, to a lesser extent, variant 3-2) was recognized by 23A11. Since this protein contains the second as well as the third extracellular loop of VPAC1, both loops (extracellular loop 2: SEQ ID NO:1; extracellular loop 3:SEQ ID NO:1) were made as GST fusion proteins and tested in western blotting. The murine antibody 23A11 was binding to each of these loops.
Background: Immunoblotting shows a protein as a band on a membrane.

For assay [3], the target named is T3, GST fusion of VPAC1 variant 3-2 (amino acids 123-457 of SEQ ID NO:15) (human, UniProt P32241 123-457).
T3 construct: not shown: GST carrier and the pGEX vector linker
T3 sequence: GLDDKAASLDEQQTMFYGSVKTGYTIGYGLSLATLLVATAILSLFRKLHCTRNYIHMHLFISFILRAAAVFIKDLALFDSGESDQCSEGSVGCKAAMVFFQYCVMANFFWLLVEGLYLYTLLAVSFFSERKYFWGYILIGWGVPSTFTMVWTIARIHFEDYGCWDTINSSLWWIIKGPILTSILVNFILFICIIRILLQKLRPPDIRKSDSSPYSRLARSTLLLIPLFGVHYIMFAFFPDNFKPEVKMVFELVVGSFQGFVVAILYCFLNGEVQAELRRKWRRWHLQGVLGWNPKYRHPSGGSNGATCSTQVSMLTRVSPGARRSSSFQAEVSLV
Nature of the assay: western blot on GST-fused VPAC1 deletion variants. The procedure:
as §1, §2

Assay [4] concerns the target T4, GST-VPAC1 fusion protein (full length human VPAC1) (human, UniProt P08515 1-218 = GST).
T4 construct: also called recombinant VPAC1
Kind of assay: SPR (BIAcore 1000), GST-VPAC1 immobilised on CM5, antibody injected, 1:1 Langmuir fit; second batch; second of two batches of murine 23A11. The procedure:
(§3) For kinetic binding analysis of GST-VPAC1 with the GST-VPAC1-antibodies, we used a BIAcore surface plasmon resonance system at 25° C. These interactions were performed on a BIAcore 1000. GST-VPAC1 was covalently immobilized on a CM5 sensorchip (carboxylated dextran matrix) after activation with a 1:1 mixture of 1-ethyl-3-(3-dimethylaminopropyl)carbodiimide and N-hydroxysuccinimide. The remaining active sites on the chip were blocked by 1.0 M ethanolamine-HCl at pH 8.5. To perform binding assays with the GST-VPAC1-antibodies, various concentrations (ranging from 250 nm to 5 nm) of murine 23A11 were injected over the immobilized GST-VPAC-1 at a flow rate of 30 μl/min. This was performed in a running buffer consisting of 0.01 M HEPES at pH 7.4, 0.15M NaCl, 3 mM EDTA and 0.005% Surfactant P20 (or Tween 20). The sensorgrams were evaluated using the BIAevaluation 4.1 software. The rate constants kₐ and kd and the dissociation constant KD were determined by using a global fit with a Langmuir 1:1 binding model with baseline drift.

The target of assay [5] is T4, GST-VPAC1 fusion protein (full length …). Kind of assay: SPR (BIAcore 1000), GST-VPAC1 immobilised on CM5, antibody injected, 1:1 Langmuir fit; first batch; first of two batches of murine 23A11. As for the experimental part:
as §3
On the technique in general: Surface plasmon resonance follows binding to a sensor surface in real time, without labels.

Assay [6] deals with T5, VPAC1 receptor of mouse bone marrow-derived CD41/61+ megakaryocytes (mouse, UniProt P97751 31-459).
T5 construct: whole, on cells; Detected by immunoblot of megakaryocytes and addressed on living megakaryocytes in the cAMP assays; also called VPAC1 receptor on the murine megakaryocytes
T5 sequence (looked up): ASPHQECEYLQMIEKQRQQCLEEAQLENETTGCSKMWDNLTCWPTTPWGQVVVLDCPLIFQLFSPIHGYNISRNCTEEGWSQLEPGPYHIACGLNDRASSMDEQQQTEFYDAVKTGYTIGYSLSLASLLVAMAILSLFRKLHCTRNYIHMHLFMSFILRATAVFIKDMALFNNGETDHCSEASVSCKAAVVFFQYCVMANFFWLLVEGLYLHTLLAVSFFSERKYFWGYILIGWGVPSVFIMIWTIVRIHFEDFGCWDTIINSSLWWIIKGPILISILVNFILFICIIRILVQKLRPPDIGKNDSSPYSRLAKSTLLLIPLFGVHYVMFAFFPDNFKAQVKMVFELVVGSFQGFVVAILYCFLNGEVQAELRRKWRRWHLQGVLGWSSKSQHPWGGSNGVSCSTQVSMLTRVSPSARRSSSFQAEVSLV
Nature of the assay: immunoblot of mouse bone marrow megakaryocytes.

The target in assay [7] is T6, GST fusion of VPAC1 extracellular loop 2 (human).
T6 construct: also called isolated extracellular loop 2 of the VPAC1 receptor; not shown: glutathione-S-transferase (GST)
T6 chain: IHFEDYGCWDTINSSLWW
Kind of assay: western blot on GST fusion of extracellular loop 2.

Assay [8] addresses T4, GST-VPAC1 fusion protein (full length …). Kind of assay: SPR (BIAcore 1000), GST-VPAC1 immobilised on CM5, 1:1 Langmuir fit; humanized 23A11, isotype not stated.

Numbering of substitutions follows the chain as printed.

B1: murine anti-VPAC1 monoclonal antibody 23A11 (antibody, V domains shown)
VH: EVQLQESGPSLVKPSQTLSLTCSVTGDSITSGYWNWIRKFPGNKLEYMGYIRYSGSTYYSPALKSRFSITRDTSKNQYYLQLNSVTTEDTATYYCSNWAYWGQGTLVTVSA
VL: DIVITQDELSNPVTSGESVSISCRSSKSLLYKDGKTYLNWFLQRPGQSPQLLIYLMSTRASGVSDRFSGSGSGTDFTLEISRVKAEDVGVYYCQQLVEYPLTFGAGTKLELK
notes: Mouse monoclonal antibody from a hybridoma; also called murine 23A11; anti-VPAC1 receptor antibody 23A11
Turning to B1, the binding result in assay [1], in assay [2], in assay [3], in assay [6] and in assay [7] was “binds” each time. In addition, the equilibrium dissociation constant (Kd) was determined as 19.9 nM in assay [4] and 28.3 nM in assay [5].

B2: humanized anti-VPAC1 monoclonal antibody 23A11 (antibody, V domains shown)
VH: EVQLQESGPGLVKPSQTLSLTCTVSGDSITSGYWNWIRKHPGKGLEYMGYIRYSGSTYYSPSLKSRFTISRDTSKNQYSLKLSSVTAADTATYYCSNWAYWGQGTLVTVSA
VL: B1 VL with D7S, E8P, N11L, S15P, S18P, E79K, K84E, A105Q, L111I
notes: also called h23A11; rhu23A11
Molecule B2 yielded a Kd in assay [8] of 9.82 nM.
